Target: rabbit anti-CS141 peptide antiserum raised against unconjugated peptide SEQUENCE ID NO 26
Assay: competition Western blot; antiserum pre-incubated with varying concentrations of peptide immunogen

concentration of peptide at which antibody binding to the band was inhibited: 2.54 µM
B1: CS141 synthetic peptide SEQUENCE ID NO 26 (peptide)
peptide: GPTMCFEDRMIMSPVKNNVGRGLNIALVNGTTGAVLGQK
